# Assay results taken from patent publication US20240117018A1.
# What was measured:
# Assay in all cases: cell-based or functional assay
# [1] = biological target: HIV-1 Env pseudovirus SC05_8C11_2344 (HIV-1)
# [2] = biological target: HIV-1 Env pseudovirus Du156.12 (HIV-1)
# [3] = biological target: HIV-1 Env pseudovirus WEAU_d15_410_787 (HIV-1)
# [4] = biological target: HIV-1 Env pseudovirus MS208.A1 (HIV-1)
# [5] = biological target: HIV-1 Env pseudovirus ZM53M.PB12 (HIV-1)
# [6] = biological target: HIV-1 Env pseudovirus CNE53 (HIV-1)
# [7] = biological target: HIV-1 Env pseudovirus QH0692.42 (HIV-1)
# [8] = biological target: HIV-1 Env pseudovirus HIV-16845-2.22 (HIV-1)
# [9] = biological target: HIV-1 Env pseudovirus Ce1172_H1 (HIV-1)
# [10] = biological target: HIV-1 Env pseudovirus ZM109F.PB4 (HIV-1)
# [11] = biological target: HIV-1 Env pseudovirus CAP45.2.00.G3 (HIV-1)
# [12] = biological target: Env of HIV-1 pseudovirus CNE19 (HIV-1)
# [13] = biological target: Env of HIV-1 pseudovirus 0260.v5.c36 (HIV-1)
# [14] = biological target: Env of HIV-1 pseudovirus Ce2060_G9 (HIV-1)
# [15] = biological target: Env of HIV-1 pseudovirus Q259.d2.17 (HIV-1)
# [16] = biological target: Env of HIV-1 pseudovirus CNE52 (HIV-1)
# [17] = biological target: Env of HIV-1 pseudovirus CNE20 (HIV-1)
# [18] = biological target: Env of HIV-1 pseudovirus Ce1176_A3 (HIV-1)
# [19] = biological target: Env of HIV-1 pseudovirus Du172.17 (HIV-1)
# [20] = biological target: Env of HIV-1 pseudovirus 1394C9G1(Rev-) (HIV-1)
# [21] = biological target: Env of HIV-1 pseudovirus 9004SS_A3_4 (HIV-1)
# [22] = biological target: Env of HIV-1 pseudovirus CAP45.2.00.G3 (HIV-1)
# [23] = biological target: Env of HIV-1 pseudovirus CNE21 (HIV-1)
# [24] = biological target: Env of HIV-1 pseudovirus QH0692.42 (HIV-1)
# [25] = biological target: Env of HIV-1 pseudovirus Ce704809221_1B3 (HIV-1)
# [26] = biological target: HIV-1 Env pseudovirus C1080.c03 (HIV-1)
# [27] = biological target: HIV-1 Env pseudovirus T278-50 (HIV-1)
# [28] = biological target: HIV-1 Env pseudovirus 6952.v1.c20 (HIV-1)
# [29] = biological target: HIV-1 Env pseudovirus T255-34 (HIV-1)
# [30] = biological target: HIV-1 Env pseudovirus 6480.v4.c25 (HIV-1)
# [31] = biological target: HIV-1 Env pseudovirus 3301.v1.c24 (HIV-1)
# [32] = biological target: HIV-1 Env pseudovirus R3265.c06 (HIV-1)
# [33] = biological target: HIV-1 Env pseudovirus CNE5 (HIV-1)
# [34] = biological target: HIV-1 Env pseudovirus X1254_c3 (HIV-1)
# [35] = biological target: HIV-1 Env pseudovirus 6545.v4.c1 (HIV-1)
# [36] = biological target: HIV-1 Env pseudovirus C3347.c11 (HIV-1)
substance,measurement,setting,value
N49P18.1 (antibody),IC50,[1],17.3 µg/mL
same,IC80,[1],> 50 µg/mL
same,MPI,[1],79
same,IC50,[2],1.88 µg/mL
same,IC80,[2],6.81 µg/mL
same,MPI,[2],100
same,IC50,[3],4.27 µg/mL
same,IC80,[3],15.5 µg/mL
same,MPI,[3],98
same,IC50,[4],8.31 µg/mL
same,IC80,[4],33.3 µg/mL
same,MPI,[4],88
same,IC50,[5],1.3 µg/mL
same,IC80,[5],4.51 µg/mL
same,MPI,[5],99
same,IC50,[6],4.08 µg/mL
same,IC80,[6],21.8 µg/mL
same,MPI,[6],97
same,IC50,[7],> 50 µg/mL
same,IC80,[7],> 50 µg/mL
same,MPI,[7],43
same,IC50,[8],> 50 µg/mL
same,IC80,[8],> 50 µg/mL
same,MPI,[8],23
same,IC50,[9],46.4 µg/mL
same,IC80,[9],> 50 µg/mL
same,MPI,[9],52
same,IC50,[10],26.6 µg/mL
same,IC80,[10],> 50 µg/mL
same,MPI,[10],69
same,IC50,[11],5.14 µg/mL
same,IC80,[11],33.1 µg/mL
same,MPI,[11],88
PG9 (antibody),IC50,[12],0.024 µg/mL
same,IC80,[12],0.146 µg/mL
same,IC50,[13],1.69 µg/mL
same,IC80,[13],9 µg/mL
same,IC50,[14],0.045 µg/mL
same,IC80,[14],0.172 µg/mL
same,IC50,[15],0.029 µg/mL
same,IC80,[15],1.38 µg/mL
same,IC50,[16],0.029 µg/mL
same,IC80,[16],0.081 µg/mL
same,IC50,[17],0.052 µg/mL
same,IC80,[17],0.278 µg/mL
same,IC50,[18],0.014 µg/mL
same,IC80,[18],0.044 µg/mL
same,IC50,[19],0.606 µg/mL
same,IC80,[19],1.6 µg/mL
same,IC50,[20],0.029 µg/mL
same,IC80,[20],0.114 µg/mL
same,IC50,[21],0.088 µg/mL
same,IC80,[21],0.251 µg/mL
same,IC50,[22],0.007 µg/mL
same,IC80,[22],0.029 µg/mL
same,IC50,[23],0.038 µg/mL
same,IC80,[23],0.094 µg/mL
same,IC50,[24],> 50 µg/mL
same,IC80,[24],> 50 µg/mL
same,IC50,[25],0.037 µg/mL
same,IC80,[25],0.137 µg/mL
PG16 (antibody),IC50,[12],0.024 µg/mL
same,IC80,[12],3.07 µg/mL
same,IC50,[13],1.54 µg/mL
same,IC80,[13],36.1 µg/mL
same,IC50,[14],0.075 µg/mL
same,IC80,[14],1.71 µg/mL
same,IC50,[15],0.065 µg/mL
same,IC80,[15],45.9 µg/mL
same,IC50,[16],0.009 µg/mL
same,IC80,[16],0.026 µg/mL
same,IC50,[17],3.63 µg/mL
same,IC80,[17],47.2 µg/mL
same,IC50,[18],0.003 µg/mL
same,IC80,[18],0.011 µg/mL
same,IC50,[19],0.033 µg/mL
same,IC80,[19],0.213 µg/mL
same,IC50,[20],0.008 µg/mL
same,IC80,[20],0.056 µg/mL
same,IC50,[21],0.02 µg/mL
same,IC80,[21],0.111 µg/mL
same,IC50,[22],0.001 µg/mL
same,IC80,[22],0.003 µg/mL
same,IC50,[23],0.007 µg/mL
same,IC80,[23],0.026 µg/mL
same,IC50,[24],> 50 µg/mL
same,IC80,[24],> 50 µg/mL
same,IC50,[25],0.021 µg/mL
same,IC80,[25],0.116 µg/mL
VRC01 (antibody),IC50 (Titer in TZM.bl cells),[26],3.4 µg/mL
same,IC80 (Titer in TZM.bl cells),[26],14.4 µg/mL
same,IC50 (Titer in TZM.bl cells),[27],> 50 µg/mL
same,IC80 (Titer in TZM.bl cells),[27],> 50 µg/mL
same,IC50 (Titer in TZM.bl cells),[28],0.04 µg/mL
same,IC80 (Titer in TZM.bl cells),[28],0.12 µg/mL
same,IC50 (Titer in TZM.bl cells),[1],0.64 µg/mL
same,IC80 (Titer in TZM.bl cells),[1],1.91 µg/mL
same,IC50 (Titer in TZM.bl cells),[2],0.09 µg/mL
same,IC80 (Titer in TZM.bl cells),[2],0.193 µg/mL
same,IC50 (Titer in TZM.bl cells),[29],0.7 µg/mL
same,IC80 (Titer in TZM.bl cells),[29],2.7 µg/mL
same,IC50 (Titer in TZM.bl cells),[30],0.04 µg/mL
same,IC80 (Titer in TZM.bl cells),[30],0.09 µg/mL
same,IC50 (Titer in TZM.bl cells),[3],0.12 µg/mL
same,IC80 (Titer in TZM.bl cells),[3],0.26 µg/mL
same,IC50 (Titer in TZM.bl cells),[31],0.14 µg/mL
same,IC80 (Titer in TZM.bl cells),[31],0.32 µg/mL
same,IC50 (Titer in TZM.bl cells),[4],0.1 µg/mL
same,IC80 (Titer in TZM.bl cells),[4],0.46 µg/mL
same,IC50 (Titer in TZM.bl cells),[5],1.3 µg/mL
same,IC80 (Titer in TZM.bl cells),[5],4 µg/mL
same,IC50 (Titer in TZM.bl cells),[32],0.45 µg/mL
same,IC80 (Titer in TZM.bl cells),[32],1.88 µg/mL
same,IC50 (Titer in TZM.bl cells),[33],0.37 µg/mL
same,IC80 (Titer in TZM.bl cells),[33],1.1 µg/mL
same,IC50 (Titer in TZM.bl cells),[7],1.5 µg/mL
same,IC80 (Titer in TZM.bl cells),[7],4.8 µg/mL
same,IC50 (Titer in TZM.bl cells),[34],0.07 µg/mL
same,IC80 (Titer in TZM.bl cells),[34],0.19 µg/mL
same,IC50 (Titer in TZM.bl cells),[8],2.8 µg/mL
same,IC80 (Titer in TZM.bl cells),[8],12.7 µg/mL
same,IC50 (Titer in TZM.bl cells),[35],> 50 µg/mL
same,IC80 (Titer in TZM.bl cells),[35],> 50 µg/mL
same,IC50 (Titer in TZM.bl cells),[9],> 10 µg/mL
same,IC80 (Titer in TZM.bl cells),[9],> 10 µg/mL
same,IC50 (Titer in TZM.bl cells),[36],0.17 µg/mL
same,IC80 (Titer in TZM.bl cells),[36],0.58 µg/mL
same,IC50 (Titer in TZM.bl cells),[10],0.13 µg/mL
same,IC80 (Titer in TZM.bl cells),[10],0.75 µg/mL
same,IC80 (Titer in TZM.bl cells),[11],> 50 µg/mL
